Patent publication US20180030144A1 (INNATE PHARMA, published 2018)

T1: human CD73 expressed at the cell surface (human, UniProt P21589 27-549)
T1 sequence: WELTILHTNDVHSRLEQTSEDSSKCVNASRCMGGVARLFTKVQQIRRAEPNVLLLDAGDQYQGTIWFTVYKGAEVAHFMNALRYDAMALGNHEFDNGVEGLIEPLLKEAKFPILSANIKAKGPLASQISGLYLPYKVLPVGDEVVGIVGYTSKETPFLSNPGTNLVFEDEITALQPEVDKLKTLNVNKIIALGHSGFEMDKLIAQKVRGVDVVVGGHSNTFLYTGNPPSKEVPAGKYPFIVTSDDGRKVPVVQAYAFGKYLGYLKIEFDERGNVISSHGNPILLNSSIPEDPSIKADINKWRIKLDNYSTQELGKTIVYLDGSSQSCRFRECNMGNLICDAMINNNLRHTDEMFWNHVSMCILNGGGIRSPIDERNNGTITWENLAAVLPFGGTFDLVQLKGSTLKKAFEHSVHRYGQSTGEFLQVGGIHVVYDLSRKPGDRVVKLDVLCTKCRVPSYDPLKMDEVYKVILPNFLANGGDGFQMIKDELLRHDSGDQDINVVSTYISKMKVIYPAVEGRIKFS

T2: recombinant human CD73-His extracellular domain protein (soluble dimer) (human, UniProt P21589 27-547)
T2 sequence: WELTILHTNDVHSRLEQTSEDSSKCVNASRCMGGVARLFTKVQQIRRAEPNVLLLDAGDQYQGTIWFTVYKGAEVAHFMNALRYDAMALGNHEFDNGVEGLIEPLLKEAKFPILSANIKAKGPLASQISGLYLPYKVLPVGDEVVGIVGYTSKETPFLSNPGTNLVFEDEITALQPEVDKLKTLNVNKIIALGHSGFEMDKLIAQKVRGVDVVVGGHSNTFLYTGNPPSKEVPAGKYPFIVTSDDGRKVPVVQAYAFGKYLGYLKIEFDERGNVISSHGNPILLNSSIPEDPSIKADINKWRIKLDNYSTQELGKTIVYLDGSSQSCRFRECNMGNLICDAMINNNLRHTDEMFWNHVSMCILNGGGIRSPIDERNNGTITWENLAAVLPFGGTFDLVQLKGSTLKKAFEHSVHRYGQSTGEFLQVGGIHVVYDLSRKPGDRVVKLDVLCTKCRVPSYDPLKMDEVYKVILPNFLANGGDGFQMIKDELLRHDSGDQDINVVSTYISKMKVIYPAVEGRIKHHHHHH

T3: human CD73 mutant 19 (human, UniProt P21589 27-549)
T3 construct: Transfected in HEK293T cells
T3 chain: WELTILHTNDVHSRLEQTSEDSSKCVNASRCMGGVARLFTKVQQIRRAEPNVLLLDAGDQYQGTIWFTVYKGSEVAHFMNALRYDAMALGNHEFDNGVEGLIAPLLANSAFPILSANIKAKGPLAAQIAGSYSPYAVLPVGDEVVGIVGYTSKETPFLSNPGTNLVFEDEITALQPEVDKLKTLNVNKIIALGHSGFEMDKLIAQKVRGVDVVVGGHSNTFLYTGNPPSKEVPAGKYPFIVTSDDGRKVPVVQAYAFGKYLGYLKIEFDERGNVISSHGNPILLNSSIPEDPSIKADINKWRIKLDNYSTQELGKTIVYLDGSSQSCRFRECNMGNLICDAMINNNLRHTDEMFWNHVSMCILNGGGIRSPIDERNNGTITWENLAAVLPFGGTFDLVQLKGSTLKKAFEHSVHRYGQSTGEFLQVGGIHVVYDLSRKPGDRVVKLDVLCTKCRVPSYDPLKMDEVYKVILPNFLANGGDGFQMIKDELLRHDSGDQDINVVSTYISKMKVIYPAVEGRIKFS

T4: human CD73 mutant 22 (human, UniProt P21589 27-549)
T4 construct: Transfected in HEK293T cells
T4 chain: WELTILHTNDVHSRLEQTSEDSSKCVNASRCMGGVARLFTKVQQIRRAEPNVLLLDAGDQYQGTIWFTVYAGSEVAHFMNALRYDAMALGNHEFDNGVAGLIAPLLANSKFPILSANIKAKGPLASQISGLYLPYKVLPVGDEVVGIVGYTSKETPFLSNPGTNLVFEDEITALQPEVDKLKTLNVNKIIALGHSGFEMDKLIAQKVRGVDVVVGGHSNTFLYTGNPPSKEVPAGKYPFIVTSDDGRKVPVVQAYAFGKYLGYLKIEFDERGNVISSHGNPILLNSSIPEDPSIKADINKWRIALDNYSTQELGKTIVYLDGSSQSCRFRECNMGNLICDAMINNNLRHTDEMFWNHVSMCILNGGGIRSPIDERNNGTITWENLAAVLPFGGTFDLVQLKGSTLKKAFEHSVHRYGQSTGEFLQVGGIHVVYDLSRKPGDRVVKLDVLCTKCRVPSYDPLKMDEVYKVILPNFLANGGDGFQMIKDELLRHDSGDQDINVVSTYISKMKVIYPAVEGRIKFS


Experiments:
[1] = target: T1, human CD73 expressed at the cell surface; experiment: cell-based or functional assay
[2] = target: T2, recombinant human CD73-His …; experiment: cell-based or functional assay
human CD73 mutant 19 = target: T3, human CD73 mutant 19; experiment: flow cytometry, HEK293T transfectants
human CD73 mutant 22 = target: T4, human CD73 mutant 22; experiment: flow cytometry, HEK293T transfectants
[3] = target: T1, human CD73 expressed at the cell surface; experiment: flow cytometry titration on MDA-MB-231 cells (endogenous CD73), median of fluorescence
Protocol: MDA-MB-231 cells are available from ATCC (reference HTB-26). 10⁵ cells resuspended in PBS/0.2% BSA/0.02% NaN3 (named “staining buffer”) are distributed into round bottom 96W-microplates. Dose-range of anti-CD73 antibodies was added to the plates and cells are incubated for 45 min at 4° C. Cells were washed three times in staining buffer by spinning plates at 400 g for 3 min at 4° C. PE-coupled goat anti-mouse or goat anti-human IgG Fc fragment secondary antibodies (Beckman Coulter) diluted in staining buffer were added to the cells and plates are incubated for 30 additional minutes at 4° C. Cells were washed three times as described above and analyzed on an Accury C6 flow cytometer equipped with an HTFC plate reader.
Median of fluorescence vs. antibodies concentration was plotted on graphs and EC50 is calculated using Graph Pad Prism program.

[4] = target: T1, human CD73 expressed at the cell surface; experiment: flow cytometry titration on a human-CD73-expressing recombinant host cell line, median of fluorescence
[5] = target: T5, cynomolgus CD73 expressed on a recombinant host cell line (cynomolgus); experiment: flow cytometry titration on a cynomolgus-CD73-expressing recombinant host cell line, median of fluorescence
T5 construct: whole, on cells; also called cynoCD73

| decrease of the enzymatic activity of cellular CD73 (MDA-MB-231 cells) [1] | EC50 for CD73 blockade (enzymatic activity of soluble recombinant human CD73-his) [2] | binding result (human CD73 mutant 19) | binding result (human CD73 mutant 22) | EC50 (read off the curve) [3] | EC50 (read off the curve) [4] | EC50 (read off the curve) [5] | Binder |
| --- | --- | --- | --- | --- | --- | --- | --- |
| > 75% | 0.41 µg/mL | no binding | no binding | ~0.1 µg/mL | ~0.4 µg/mL | ~0.4 µg/mL | antibody 11E1 (antibody, human IgG1, V domains shown, Produced as chimeric human IgG1 with heavy chain N297Q (Kabat EU numbering); also called 1E11) VH: EIQLQQSGPELVKPGASVKVSCKASGYAFTSYNMYWVKQSHGKSLEWIGYIDPYNGGTSYNQKFKGKATLTVDKSSSTAYMHLNSLTSEDSAVYYCARGYGNYKAWFAYWGQGTLVTVSA VL: DAVMTQTPKFLLVSAGDRVTITCKASQSVTNDVAWYQQKPGQSPKLLIYYASNRYTGVPDRFTGSGYGTDFTFTISTVQAEDLAVYFCQQDYSSLTFGAGTKLELK |
| > 75% | 0.41 µg/mL | no binding | no binding | ~0.07 µg/mL | ~0.6 µg/mL | ~0.4 µg/mL | antibody 3C12 (antibody, human IgG1, V domains shown, Produced as chimeric human IgG1 with heavy chain N297Q (Kabat EU numbering); RTVAAP)) VH: QIQLQQSGPELVKPGASVKVSCKASGYAFASYNMNWVKQSHGKSLDWIGYIDPYNGGSSYNLTFKGKATLTVDKSSTTAYMHLNSLTSEDSAVYYCARGYGNYKAWFAYWGQGTLVTVSA VL: DVVMTQTPKFLLVSAGDRVTITCKASQSVSNDVAWYQQKPGQSPKLLIYYASTRYTGVPDRFTGSGYGTDFTFTISTVQAEDLAVYFCQQDYSSLTFGAGTKLELKR |
| > 75% | 0.33 µg/mL | no binding | no binding | ~0.1 µg/mL | ~0.4 µg/mL | ~0.4 µg/mL | antibody 6E1 (antibody, human IgG1, V domains shown, Produced as chimeric human IgG1 with heavy chain N297Q (Kabat EU numbering)) VH: EFQLQQSGPELVKPGASVKVSCKASGYAFTSYNMYWVKQSHGKRLEWIGYIDPYNGGSSYNQKFKGKATLTVDKSSSTAYMHLNNLTSEDSAVYYCARGYNNYKAWFAYWGQGTLVTVSA VL: SIVMTQTPKFLLVSAGDRVTITCKASQSVTNDVAWYQQKPGQSPKLLIYYASNRYTGVPDRFTGSGYGTDFTFTISTMQAEDLAVYFCQQDYSSLTFGAGTKLELK |
